Test [1] deals with T1, GPC3 expressed on hepatoma cell line HepG2 (human, UniProt P51654 25-554).
T1 construct: whole, on cells; also called GPC3-expressing tumor cells (HepG2); cells expressing GPC3
Kind of test: flow cytometry on HepG2 cells, 1 µg antibody, PE anti-mouse IgG secondary; mean fluorescence. On the procedure: (§1) First, hepatoma cell line HepG2 expressing GPC3 was reacted with 1 μg of each of 10E9, 8B2, 7C6, 7B9, 5E11, and 1A8 antibodies for 30 minutes, and then, after staining the surface with a secondary antibody, it was measured by flow cytometry.
(§2) GPC3 antibody (Sino biology Glypican3 APC cat #100393-R024-A, 10 u.1) was used as a positive control, and PE-conjugated anti-mouse IgG antibody (PE-conjugated goat anti-mouse IgG; Biolegend Inc., cat #405307, USA, 5 μl) was used as a secondary antibody.

Test [2] has as its target T1, GPC3 expressed on hepatoma cell line …. Description: flow cytometry on HepG2 cells, 1 µg antibody, PE anti-mouse IgG secondary; median fluorescence. On the procedure: as §1, §2
Test [3] has as its target T2, GPC3 protein (Acrobiosystems, cat #GP3-H52H4) (UniProt P51654 25-559).
T2 construct: Bought protein coated on the ELISA plate at 100 ng/well; also called Glypican 3; GPC3 antigen
Description: ELISA, GPC3 protein coated at 100 ng/well, 100 µl hybridoma culture, anti-mIgG-HRP. The procedure: First, in order to encode the GPC3 peptide, GPC3 protein (Acrobiosystems, cat #GP3-H52H4) was dispensed into a 96-well plate at an amount of […] and reacted overnight at 4° C. Then, after treatment with 1 X PBST containing 3% BSA, it was blocked for 30 minutes at room temperature.
100 μl of hybridoma cell culture of each clone producing 10E9, 8B2, 7C6, 7B9, 5E11 or 1A8 antibody was treated in each well, reacted at room temperature for 2 hours, and then washed three times with 1 X PBST. The secondary antibody ([…], 1:10,000) was treated and reacted at room temperature for 30 minutes, washed three times with 1 X PBST, and then treated with TMB for color development and reacted at room temperature for 5 minutes. Finally, the reaction was terminated by treatment with a stop solution of 1N H2SO 4, and then the absorbance was measured at 450 nm.

We go through six molecules from patent publication US20240018262A1 (INNOBATION BIO, published 2024).

T2 sequence (P51654 25-559 limits assumed): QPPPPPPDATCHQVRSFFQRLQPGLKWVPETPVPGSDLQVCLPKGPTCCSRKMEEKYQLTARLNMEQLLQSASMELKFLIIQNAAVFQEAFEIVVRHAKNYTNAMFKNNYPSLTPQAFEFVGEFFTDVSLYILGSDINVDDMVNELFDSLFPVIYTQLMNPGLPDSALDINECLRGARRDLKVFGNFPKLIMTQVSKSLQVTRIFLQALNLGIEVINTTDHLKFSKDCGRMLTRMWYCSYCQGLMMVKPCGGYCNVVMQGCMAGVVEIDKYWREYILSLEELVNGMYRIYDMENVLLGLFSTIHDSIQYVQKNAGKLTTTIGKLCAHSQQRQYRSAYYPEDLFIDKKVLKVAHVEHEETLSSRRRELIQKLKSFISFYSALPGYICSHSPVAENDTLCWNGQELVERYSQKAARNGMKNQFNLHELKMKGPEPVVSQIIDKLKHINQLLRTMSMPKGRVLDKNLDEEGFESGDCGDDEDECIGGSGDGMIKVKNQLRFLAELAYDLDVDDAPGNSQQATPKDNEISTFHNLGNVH
T1 sequence (P51654 25-554 limits assumed): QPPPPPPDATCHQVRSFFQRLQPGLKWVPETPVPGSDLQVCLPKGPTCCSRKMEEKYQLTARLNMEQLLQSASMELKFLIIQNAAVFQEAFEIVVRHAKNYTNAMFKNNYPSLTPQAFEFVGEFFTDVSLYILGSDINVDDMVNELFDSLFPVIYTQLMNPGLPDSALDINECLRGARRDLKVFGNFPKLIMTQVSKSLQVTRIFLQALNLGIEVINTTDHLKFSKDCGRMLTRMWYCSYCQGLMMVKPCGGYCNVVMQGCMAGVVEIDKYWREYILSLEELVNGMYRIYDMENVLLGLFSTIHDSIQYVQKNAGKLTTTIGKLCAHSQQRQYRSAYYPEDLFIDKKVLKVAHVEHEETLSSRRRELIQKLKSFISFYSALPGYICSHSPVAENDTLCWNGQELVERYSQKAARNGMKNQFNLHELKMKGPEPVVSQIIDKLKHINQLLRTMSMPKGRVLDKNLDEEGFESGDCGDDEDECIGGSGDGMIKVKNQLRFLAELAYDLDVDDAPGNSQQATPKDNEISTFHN

B1: 5E11 antibody (antibody, V domains shown)
VH: QVQLKQSGAELMKPGASVKISCKATGYTFSRYWIEWVKQRPGHGLEWIGEILPGSGSTSYNEKFKGKATFTADTSSNTAYMQLSSLTSEDSAVYYCARSARATYYFDYWGQGTTLTVSS
VL: DIQMTQTTSSLSASLGDRVTISCWASQDISNYLNWYQQKPDGTVKLLIYYTSTLHSGVPSRFSGSGSGTDYSLTISNLEQEDIATYFCQQGNALPYTFGGGTKLEIK
notes: Mouse hybridoma monoclonal antibody, detected with anti-mouse IgG
Regarding B1, the Mean in test [1] came out at 52600. In addition, the Median in test [2] was found to be 40200. Besides, the OD450 measurement in test [3] is 0.942 OD450.

B2: 10E9 antibody (antibody, V domains shown)
VH: EVQLEESGTVLARPGASVKMSCKASGYTFTSYWMHWIKQRPGQGLEWIGAIYPGNSDTSYNQKFKGKAKLTAVTSTSTAYMELSSLTNEDSAVYYCTRGEYDYVLAYWGQGTLVTVSA
VL: DIVMTQSPATLSVTPGDSVSLSCRASQSISNNLHWYQQKSHESPRLLIKFASQSISGIPSRFSGSGSGTDFTLSINSVETEDFGMYFCQQSNSWPHMYTFGGGTKLEIK
notes: Mouse hybridoma monoclonal antibody, detected with anti-mouse IgG; Used as hybridoma culture supernatant in the ELISA
B2 registered a Mean in test [1] of 33000. The same molecule registered a Median in test [2] of 25200. Moreover, the OD450 measurement in test [3] is 2.32 OD450.

B3: 7B9 antibody (antibody, V domains shown)
VH: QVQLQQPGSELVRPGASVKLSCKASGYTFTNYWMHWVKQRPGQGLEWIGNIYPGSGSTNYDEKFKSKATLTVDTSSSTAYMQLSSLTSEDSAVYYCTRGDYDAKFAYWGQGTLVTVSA
VL: DIVMTQSPAIMSASPGEKVTMTCRASSSVSSSYLHWYQQKSGASPKLWIYSTSKLASGVPARFSGSGSGTSYSLTISSVEAEDAATYYCQQYSGYPLITFGAGTKVELK
notes: as for B1
B3 registered a Mean in test [1] of 27300. This molecule displayed a Median in test [2] of 22000. In test [3], this molecule returned an OD450 measurement of 2.54 OD450.

B4: 8B2 antibody (antibody, V domains shown)
VH: QVQLQQPGAELVKPGASVKMSCKASGYTFTSYNMHWVKQTPGQGLEWIGAIYPGNGYTSYNQKFKGKATLTADKSSSTAYMQLSSLTSEDSAVYYCARGGGPFAYWGQGTLVTVSA
VL: DIVMTQSHKFMSTSVGDRVSITCKASQDVGTAVAWYQQKPGQSPKLLIYWPSTRHTGVPDRFTGSGSGTDFTLTISNVQSEDLADYFCQQYSSYPFTFGSGTKLEIK
notes: as for B1
In turn, B4 displayed a Mean in test [1] of 40000. Moreover, the Median in test [2] came to 31400. For the same molecule, in test [3], the OD450 measurement amounted to 1.01 OD450.

B5: 1A8 antibody (antibody, V domains shown)
VH: QVQLQQPGSELVRPGASVKLSCKASGYTFTSYWMHWVKQRHGQGLEWIGNIYPGSGSTNYDEKFKSKGTLTVDTSSRTAYMHLSSLTSEDSAVYYCTRGHYDYAMDYWGQGTSVTVSS
VL: DIVMTQSPSSLSASLGDTITITCHASQNINVWLSWYQQKPGNIPKLLIYKTSNLHTGVPSRFSGSGSGTGFTLTISSLQPEDIATYYCQQGQSYPWTFGGGTKLEIK
notes: as for B1
Turning to B5, the Mean in test [1] worked out at 36600. The molecule further yielded a Median in test [2] of 29000. The molecule further returned an OD450 measurement in test [3] of 2.65 OD450.

B6: 7C6 antibody (antibody, V domains shown)
VH: QVQLQQPGAELVKPGASVKLSCKASGYTFTTYYMYWVKQRPGQGLEWIGEINPSNGGTNFNEKFKSKATLTVDKSSSTAYMQLSSLTSEDSAVYYCTTFAYWGQGTLVTVSA
VL: DIVMTQSPSSLSASLGGKVTITCKASQDINKYIVWYQHKPGKGPRLLIHYTSILQPGIPSRFSGSGSGRDYSFSISNLEPEDIATYYCLQYDNLWTFGGGTKLEIK
notes: as for B1
Molecule B6 showed a Mean in test [1] of 81400. In test [2], the Median worked out at 61800. The same molecule had an OD450 measurement in test [3] of 2.88 OD450.
